How the values were obtained:
NaPi2b-derived peptide = target: T1, NaPi2b-derived peptide (Homo sapiens, UniProt O95436); assay: Binding kinetics to NaPi2b-derived peptide by Biolayer Interferometry; conditions: BLI, 25° C.
T1 construct: Genscript); purchased Genscript
T1 sequence (O95436 311-340 limits assumed): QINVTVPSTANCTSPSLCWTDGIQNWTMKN
Protocol: The binding kinetics of XMT-1535, Conjugate 7, and Conjugate 11 to immobilized NaPi2b-derived peptide antigen were determined by Biolayer Interferometry (BLI; Octet; ForteBio). Binding constants for XMT-1535, Conjugate 7, and Conjugate 11 were determined using standard Octet procedures (ForteBio). Biotinylated NaPi2b-derived peptide ([…]-biotin; Genscript) was immobilized to streptavidin octet sensors in kinetics buffer (10×). Sensors were then blocked in kinetics buffer (10×) with biocytin (50 μg/mL). Increasing concentrations of XMT-1535, Conjugate 7, or Conjugate 11 were then associated with immobilized peptide in kinetics buffer (10×).

FcγRIIA (H167) = target: T2, FcγRIIA (H167) (Homo sapiens, UniProt P12318); assay: Binding kinetics to FcγRIIA by Biolayer Interferometry; conditions: FcγRIIA H167, BLI, 25° C.
T2 sequence (P12318 34-217 limits assumed): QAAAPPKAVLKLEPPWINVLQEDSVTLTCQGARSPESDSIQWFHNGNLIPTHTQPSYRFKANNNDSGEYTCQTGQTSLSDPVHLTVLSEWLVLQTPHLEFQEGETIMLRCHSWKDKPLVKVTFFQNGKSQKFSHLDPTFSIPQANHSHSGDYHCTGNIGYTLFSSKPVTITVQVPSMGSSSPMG
Protocol: (§1) The binding kinetics of the XMT-1535, Conjugate 7, and Conjugate 11 to Fc receptors (FcRn, FcγRI, FcγRIIA (H167), and FcγRIIIA (V176) were determined by Biolayer Interferometry (BLI; ForteBio Octet QKe) at 25° C. To test binding to Fcγ receptors, XMT-1535, Conjugate 7, and Conjugate 11 were diluted to 1 μg/mL in kinetics buffer (1×) and captured on anti-human Fab-CH1 (FAB2G) biosensors for 10 minutes. All dilutions and baseline measurements were done in kinetics buffer (1×). Baseline measurements were performed at […] before and after each capture step. Association measurements to the various Fc receptors were performed at 7 concentrations (from 1 μM to 100 nM, 2-fold serial dilutions) for 5 minutes. Dissociation was performed for 15 minutes. Binding constants were calculated with the global fit averages of the traces using a 1:1 model. Binding constants for XMT-1535, Conjugate 7, and Conjugate 11 to Fc receptors were determined using standard Octet procedures (ForteBio). Kinetic parameters were calculated using Octet software (ForteBio).
(§2) Tables IV-VII summarize the Kd (equilibrium dissociation constant), kon (rate of association), and koff (rate of dissociation) for human FcRn (Table IV), FcγRI (Table V), FcγRIIA H167 (Table VI), and FcγRIIIA […] (Table VII) for each test article.

FcγRIIIA (V176) = assay: Binding kinetics to FcγRIIIA by Biolayer Interferometry; parameters: species or system human; conditions: BLI, 25° C.
Protocol: as §1, §2

human FcRn = target: T3, human FcRn (Homo sapiens, UniProt P55899); assay: Binding kinetics to FcRn by Biolayer Interferometry; conditions: BLI, 25° C., pH 6.0
T3 construct: purchased Immunitrack
T3 sequence (P55899 24-297 limits assumed): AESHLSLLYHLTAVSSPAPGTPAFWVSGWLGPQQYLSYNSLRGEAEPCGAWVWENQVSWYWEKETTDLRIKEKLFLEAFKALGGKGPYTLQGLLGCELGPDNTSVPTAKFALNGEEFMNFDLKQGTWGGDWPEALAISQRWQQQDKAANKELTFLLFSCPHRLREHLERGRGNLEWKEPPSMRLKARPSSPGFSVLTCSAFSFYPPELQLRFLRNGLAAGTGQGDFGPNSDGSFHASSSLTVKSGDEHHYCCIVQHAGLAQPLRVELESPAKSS
T3 sequence (P61769 21-119 partner): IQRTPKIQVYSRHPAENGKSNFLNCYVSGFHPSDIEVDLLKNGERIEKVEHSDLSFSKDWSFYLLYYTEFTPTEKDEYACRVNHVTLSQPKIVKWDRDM
Protocol: as §1
To test binding to FcRn receptor, association of XMT-1535, Conjugate 7, and Conjugate 11 to Fab-CH1 (FAB2G) biosensors was performed as described above. […] Association measurements to FcRn protein (Immunitrack) was measured at 7 concentrations (from 1 μM to 100 nM, 2-fold serial dilutions) for 5 minutes. […]

FcγRI = FcγRI (Homo sapiens, UniProt P12314); assay: Binding kinetics to FcγRI by Biolayer Interferometry; conditions: BLI, 25° C.
Sequence of FcγRI (P12314 16-374): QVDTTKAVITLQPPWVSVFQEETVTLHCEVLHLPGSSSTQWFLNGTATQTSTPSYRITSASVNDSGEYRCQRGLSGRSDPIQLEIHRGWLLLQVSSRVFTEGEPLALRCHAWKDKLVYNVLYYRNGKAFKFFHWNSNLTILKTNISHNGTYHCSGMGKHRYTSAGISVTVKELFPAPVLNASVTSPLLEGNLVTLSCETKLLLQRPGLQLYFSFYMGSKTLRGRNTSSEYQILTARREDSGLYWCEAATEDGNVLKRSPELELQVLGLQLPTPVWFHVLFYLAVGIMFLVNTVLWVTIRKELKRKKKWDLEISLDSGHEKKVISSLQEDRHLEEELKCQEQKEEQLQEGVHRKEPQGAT
Protocol: as §1, §2

What does the source list for XMT-1535: anti-NaPi2b antibody?
koff, Mean Napi2b binding (NaPi2b-derived peptide): 1.27e-05 s⁻¹; kon, Mean Napi2b binding (NaPi2b-derived peptide): 170000 M⁻¹ s⁻¹; koff Mean (FcγRIIA (H167)): 0.308 s⁻¹; kon Mean (FcγRIIA (H167)): 175000 M⁻¹ s⁻¹; koff Mean (FcγRIIIA (V176)): 0.146 s⁻¹; kon Mean (FcγRIIIA (V176)): 216000 M⁻¹ s⁻¹; koff Mean (human FcRn): 0.000448 s⁻¹; kon Mean (human FcRn): 160000 M⁻¹ s⁻¹; koff Mean (FcγRI): 0.000192 s⁻¹; kon Mean (FcγRI): 1.28e+06 M⁻¹ s⁻¹

From US11786605B2, “Site specific antibody-drug conjugates with peptide-containing linkers” (Mersana Therapeutics, Inc., priority 2020, dated 2023)
